The text below walks through data of publication PMC11700592, “Noncoding RNA Terc-53 and hyaluronan receptor Hmmr regulate aging in mice” (Protein & Cell, 2024).

The target of this test is T1, His-tagged Hmmr (mouse, UniProt Q00547 1-794).
T1 construct: Hmmr, mouse; It is not restated for the bacterial construct; also called His-Hmmr; purified Hmmr; source: bacteria BL21 (DE3), purified (Ni-NTA)
T1 sequence (looked up): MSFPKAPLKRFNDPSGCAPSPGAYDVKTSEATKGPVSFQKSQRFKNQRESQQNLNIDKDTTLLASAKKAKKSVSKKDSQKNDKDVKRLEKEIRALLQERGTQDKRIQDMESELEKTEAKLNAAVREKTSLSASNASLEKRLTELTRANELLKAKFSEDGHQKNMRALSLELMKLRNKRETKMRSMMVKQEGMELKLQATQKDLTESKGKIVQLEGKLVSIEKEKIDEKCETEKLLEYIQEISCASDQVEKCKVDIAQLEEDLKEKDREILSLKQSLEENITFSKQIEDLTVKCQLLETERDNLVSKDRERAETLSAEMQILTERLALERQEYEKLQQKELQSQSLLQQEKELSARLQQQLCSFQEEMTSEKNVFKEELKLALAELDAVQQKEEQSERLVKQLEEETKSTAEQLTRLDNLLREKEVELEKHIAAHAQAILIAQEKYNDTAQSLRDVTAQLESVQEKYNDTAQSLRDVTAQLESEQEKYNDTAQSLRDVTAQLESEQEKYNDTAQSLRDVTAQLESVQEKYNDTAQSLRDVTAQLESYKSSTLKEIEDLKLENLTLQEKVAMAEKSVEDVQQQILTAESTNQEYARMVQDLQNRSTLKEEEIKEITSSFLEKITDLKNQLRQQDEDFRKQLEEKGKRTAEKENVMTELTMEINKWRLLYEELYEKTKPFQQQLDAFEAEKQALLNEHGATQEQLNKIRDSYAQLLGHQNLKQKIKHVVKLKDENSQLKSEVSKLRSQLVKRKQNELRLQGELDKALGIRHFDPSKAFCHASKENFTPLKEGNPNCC
The experiment in a line: co-IP; in vitro binding assay: purified His-tagged Hmmr and HA-tagged Trim25 mixed without RNA or with in vitro transcribed Terc-53, 5S rRNA, full-length Terc or Terc-53 mut; one sample with Terc-53 treated with RNase A; immunoprecipitated with His antibody, blot with HA antibody. The following applies: both partners purified.

B1: HA-tagged Trim25 (natural protein, mouse, UniProt Q61510 1-634, looked up)
chain: MAELNPLAEELSCSVCLELFKEPVTTPCGHNFCMSCLDETWVVQGPPYRCPQCRKVYQVRPQLQKNTVMCAVVEQFLQAEQARTPVDDWTPPARFSASSAATQVACDHCLTEIAVKTCLVCMASFCQEHLRPHFDSPAFQDHPLQSPIRDLLRRKCTQHNRLRELFCPEHGECICHICLVEHKTCSPTTLSQASADLEYKLRNKLTIMHSHINGATKALEDVRSKQQCVQDSMKRKMEQLRQEYMEMKAVIDAAETSSLRKLKEEEKRVYGKFDTIYQVLVKKKSEMQKLKAEVELIMDKGDEFEFLEKAAKLQGESTKPVYIPKIDLDHDLIMGIYQGAADLKSELKHSIKKLQKKSEEHNGSGNKGDQTQSTFKPVQPSKKTIQEKKTKKTPVAPGPPSHFSPNKLPTFGAPGQSLDSKATSPDAAPKASAAQPDSVGVKAKVLENFLTKSRTELLEYFVKVIFDYNTAHNKVSLSNKYTTASVSDGLQHYRSHPQRFTYCSQVLGLHCYKNGIHYWEVELQKNNFCGVGICYGSMERQGPESRLGRNPNSWCVEWFNNKISAWHNNVEKTLPSTKATRVGVLLNCDHGFVIFFAVTEKVHLMYKFKVDFTEALYPAFWVFSAGTTLSICSK
notes: Trim25, mouse; also called HA-Trim25; purified Trim25; source: purified
With B1, the binding result is on record as “binds”.
